Biological target: T1, Recombinant Human PD-L1-TVMV-His, hPDL1(19-239)-TVMV-His (human, UniProt Q9NZQ7 19-239)
T1 construct: also called PD-L1-His; soluble PD-L1
Assay: HTRF competition of PD-1-Ig binding to PD-L1-His; grade, legend paragraph 524: A=0.10-10 µM
Protocol: Homogenous Time-Resolved Fluorescence (HTRF) Assays of Binding of Soluble PD-1 to Soluble PD-L1. Soluble PD-1 and soluble PD-L1 refers to proteins with carboxyl-end truncations that remove the transmembrane-spanning regions and are fused to heterologous sequences, specifically the Fc portion of the human immunoglobuling G sequence (Ig) or the hexahistidine epitope tag (His). All binding studies were performed in an HTRF assay buffer consisting of dPBS supplemented with 0.1% (w/v) bovine serum albumin and 0.05% (v/v) Tween-20. For the PD-1-Ig/PD-L1-His binding assay, inhibitors were pre-incubated with PD-L1-His (10 nM final) for 15 m in 4 μl of assay buffer, followed by addition of PD-1-Ig (20 nM final) in 1 μl of assay buffer and further incubation for 15m. PD-L1 fusion proteins from either human, cynomologous macaques, mouse, or other species were used. HTRF detection was achieved using europium crypate-labeled anti-Ig monoclonal antibody (1 nM final) and allophycocyanin (APC) labeled anti-His monoclonal antibody (20 nM final). Antibodies were diluted in HTRF detection buffer and 5 μl was dispensed on top of binding reaction. The reaction was allowed to equilibrate for 30 minutes and signal (665 nm/620 nm ratio) was obtained using an EnVision fluorometer. […]

T1 sequence (Q9NZQ7 other isoform, or with tags, fused parts or gaps limits assumed): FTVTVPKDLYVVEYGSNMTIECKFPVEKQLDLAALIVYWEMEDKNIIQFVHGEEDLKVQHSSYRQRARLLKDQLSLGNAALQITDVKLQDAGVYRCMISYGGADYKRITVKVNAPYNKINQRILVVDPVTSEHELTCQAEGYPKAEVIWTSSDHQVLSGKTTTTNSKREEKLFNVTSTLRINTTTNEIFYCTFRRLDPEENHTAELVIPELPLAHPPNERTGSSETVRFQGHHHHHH

- IC50: 0.1 to 10 µM
B1: Example 1001 (peptide)
peptide: FANPHLXWSWXXRCG
modifications: not fully specified; N-terminal acetyl group (from chloroacetyl capping) joined as a thioether to the side chain of Cys 14 (macrocycle); N-methyl-Ala at 2; X at 7 = residue from 'Fmoc-Cyclopenty-Gly-OH'; X at 11 and 12 = N-methyl-norleucine; C-terminal amide (Rink resin)
notes: the structure itself is only a drawing (CHEM-US-00006)

From patent publication US20160176928A1 (Bristol-Myers Squibb, published 2016)
